According to patent US20170253873A1 (MAYO FOUNDATION FOR MEDICAL EDUCATION AND RESEARCH, published 2017):

B1: GST fusion of the carboxyl half of SNX9 (Phox and BAR domains) (other, UniProt Q9Y5X1 204-595, looked up)
chain: PLNKFPGFAKPGTEQYLLAKQLAKPKEKIPIIVGDYGPMWVYPTSTFDCVVADPRKGSKMYGLKSYIEYQLTPTNTNRSVNHRYKHFDWLYERLLVKFGSAIPIPSLPDKQVTGRFEEEFIKMRMERLQAWMTRMCRHPVISESEVFQQFLNFRDEKEWKTGKRKAERDELAGVMIFSTMEPEAPDLDLVEIEQKCEAVGKFTKAMDDGVKELLTVGQEHWKRCTGPLPKEYQKIGKALQSLATVFSSSGYQGETDLNDAITEAGKTYEEIASLVAEQPKKDLHFLMECNHEYKGFLGCFPDIIGTHKGAIEKVKESDKLVATSKITLQDKQNMVKRVSIMSYALQAEMNHFHSNRIYDYNSVIRLYLEQQVQFYETIAEKLRQALSRFPVM
notes: domain: Phox and BAR domains; not shown: glutathione S-transferase (GST) tag
B2: phosphorylated Smad2 (pSmad2) (other, UniProt Q62432 2-467, looked up)
chain: SSILPFTPPVVKRLLGWKKSAGGSGGAGGGEQNGQEEKWCEKAVKSLVKKLKKTGRLDELEKAITTQNCNTKCVTIPSTCSEIWGLSTANTVDQWDTTGLYSFSEQTRSLDGRLQVSHRKGLPHVIYCRLWRWPDLHSHHELKAIENCEYAFNLKKDEVCVNPYHYQRVETPVLPPVLVPRHTEILTELPPLDDYTHSIPENTNFPAGIEPQSNYIPETPPPGYISEDGETSDQQLNQSMDTGSPAELSPTTLSPVNHSLDLQPVTYSEPAFWCSIAYYELNQRVGETFHASQPSLTVDGFTDPSNSERFCLGLLSNVNRNATVEMTRRHIGRGVRLYYIGGEVFAECLSDSAIFVQSPNCNQRYGWHPATVCKIPPGCNLKIFNNQEFAALLAQSVNQGFEAVYQLTRMCTIRMSFVKGWGAEYRRQTVTSTPCWIELHLNGPLQWLDKVLTQMGSPSVRCSSMS
modifications: phosphorylated (sites not given)
notes: Endogenous protein from AKR-2B cell lysate, detected by Western blot with a phospho-Smad2 specific antibody
B3: GST fusion of the amino half of SNX9 (SH3 and low complexity (LC) domains) (other, UniProt Q9Y5X1 1-203, looked up)
chain: MATKARVMYDFAAEPGNNELTVNEGEIITITNPDVGGGWLEGRNIKGERGLVPTDYVEILPSDGKDQFSCGNSVADQAFLDSLSASTAQASSSAASNNHQVGSGNDPWSAWSASKSGNWESSEGWGAQPEGAGAQRNTNTPNNWDTAFGHPQAYQGPATGDDDDWDEDWDGPKSSSYFKDSESADAGGAQRGNSRASSSSMKI
notes: domain: SH3 and low complexity (LC) domains; also called amino terminal peptide; not shown: glutathione S-transferase (GST) tag
B4: GST fusion of the first 74 amino acids of SNX9 encoding the SH3 domain (other, UniProt Q9Y5X1 1-74, looked up)
chain: MATKARVMYDFAAEPGNNELTVNEGEIITITNPDVGGGWLEGRNIKGERGLVPTDYVEILPSDGKDQFSCGNSV
notes: range 1-74; also called SH3 domain of sorting nexin 9; SNX9 SH3 domain; not shown: glutathione S-transferase (GST) tag
B5: GST fusion of the LC (low complexity) domain of SNX9 (other, UniProt Q9Y5X1 63-203, looked up)
chain: DGKDQFSCGNSVADQAFLDSLSASTAQASSSAASNNHQVGSGNDPWSAWSASKSGNWESSEGWGAQPEGAGAQRNTNTPNNWDTAFGHPQAYQGPATGDDDDWDEDWDGPKSSSYFKDSESADAGGAQRGNSRASSSSMKI
notes: domain: LC domain; It overlaps the 1-74 fragment; also called LC domain; not shown: glutathione S-transferase (GST) tag
B6: TAT-SH3-2M (TAT-SH3-2 with G to V mutations at amino acids 36-38) (designed binder)
chain: TVNEGEIITITNPDVVVVWLEGRNIKGERGL
notes: range 21-51; Mutant of TAT-SH3-2; also called Control peptide; not shown: His tag, cell penetrating TAT polypeptide from HIV and HA tag

How the values were obtained:
[1] = target: T1, phosphorylated Smad3 (pSmad3) (UniProt Q8BUN5 2-425, phosphorylated (sites not given)); experiment: GST pull-down from AKR-2B lysate, Western blot
T1 construct: Endogenous protein from AKR-2B cell lysate, detected by Western blot with a phospho-Smad3 specific antibody; also called phosphorylated (p) Smad3

[2] = target: B2; experiment: GST pull-down from AKR-2B lysate, Western blot
Description: Lysates from AKR-2B cells untreated (−) or stimulated (+) for 45 minutes with 5 ng/mL TGFβ were incubated with GST beads or the indicated fusion polypeptides immobilized on GST beads. Bound polypeptides were eluted and assessed by Western analysis for pSmad3 or pSmad2. Cell lysate reflects signal obtained from 10 μg total protein. (B) AKR-2B cells were transduced for 90 minutes with the indicated concentrations of the TAT-SNX9(SH3) fusion polypeptides. Following washing and 1 hour TGFβ (5 ng/mL) treatment, nuclear fractions were isolated, and Western blotted for pSmad2, pSmad3, or histone deacetylase 1 (HDAC) (Left). Quantitation of nuclear pSmads was performed with Image J software and represents the mean+/−sd of two experiments (Right). […] Immunofluorescence for Smad3 or the HA-tagged TAT-SNX9(SH3) fusion polypeptide was performed, and nuclei were stained with DAPI (Left panels). Quantitation of nuclear Smad3 from 30 cells in each of two experiments (Right).
To assess SNX9 binding to GST or His constructs, cells were incubated in the presence or absence of 5 ng/mL TGFβ for 45 minutes. Following RIPA buffer lysis, 500 μg of protein was precleared with GST Resin or TALON Metal Affinity Resin for 2 hours at 4° C. Precleared cell lysates were then treated with 5 μg purified GST- or His-fusion proteins and incubated overnight at 4° C. with gentle shaking. Following addition of GST or TALON Metal Affinity Resin and 2 hours of incubation, the pelleted (3,000×g; 10 minutes) resin was washed several times with PBS, and the remaining proteins were eluted using 1× Laemmli sample buffer. Western blotting was performed as described above.

[3] = target: T2, GST full length (FL) SNX9 (UniProt Q9Y5X1 1-595); experiment: GST pull-down from AKR-2B lysate, Western blot
T2 construct: GST fusion used in pull-down; also called GST-FL SNX9; not shown: glutathione S-transferase (GST) tag

[4] = target: T1, phosphorylated Smad3 (pSmad3); experiment: His pull-down from AKR-2B lysate, Western blot

T1 sequence (Q8BUN5 2-425 limits assumed): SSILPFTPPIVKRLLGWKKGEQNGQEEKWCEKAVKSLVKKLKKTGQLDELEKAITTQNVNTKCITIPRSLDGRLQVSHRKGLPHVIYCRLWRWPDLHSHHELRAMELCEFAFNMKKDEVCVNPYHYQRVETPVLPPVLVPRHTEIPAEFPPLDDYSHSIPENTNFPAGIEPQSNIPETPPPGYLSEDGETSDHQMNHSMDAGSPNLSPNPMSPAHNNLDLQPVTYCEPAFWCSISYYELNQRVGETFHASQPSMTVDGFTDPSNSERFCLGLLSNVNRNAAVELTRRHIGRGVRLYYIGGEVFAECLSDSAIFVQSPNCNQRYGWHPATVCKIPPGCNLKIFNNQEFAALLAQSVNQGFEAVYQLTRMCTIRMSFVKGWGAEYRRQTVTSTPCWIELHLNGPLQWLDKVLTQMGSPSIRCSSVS

| Binder | binding result [2] | further results |
| --- | --- | --- |
| B1 | no binding | binding result [1]: no binding |
| B2 |  | binding result [3]: no binding |
| B3 | no binding |  |
| B4 | no binding |  |
| B5 | no binding |  |
| B6 |  | binding result [4]: no binding |
